Target: T1, recombinant MICA (rMICA) (UniProt Q29983 24-307, limits assumed)
T1 construct: Recombinant MICA coated on ELISA plates
T1 sequence (looked up): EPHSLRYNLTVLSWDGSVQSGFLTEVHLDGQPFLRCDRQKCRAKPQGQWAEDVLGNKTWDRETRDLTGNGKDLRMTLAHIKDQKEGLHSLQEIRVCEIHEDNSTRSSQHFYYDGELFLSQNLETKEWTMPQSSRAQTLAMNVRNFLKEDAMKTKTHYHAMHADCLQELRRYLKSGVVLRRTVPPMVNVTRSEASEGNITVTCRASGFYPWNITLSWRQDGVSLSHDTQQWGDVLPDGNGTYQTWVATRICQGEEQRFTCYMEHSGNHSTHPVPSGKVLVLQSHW
Assay: method not stated

B1: anti-MICA scFv protein (scFv-aMICA) (scFv)
scFv: EFGVVMTQSPDFQSVTPKEKVTITCRASQSIGRSIHWYQQKPDQSPKLLVMYASQSFSGVPSRFSGSGSGTDFTLTINSLEAEDAATYYCHQSYSVPRSFGQGTKLEIKRTVAAGGSSRSSSSGGGGSGGGGQVQLQESGPGLVKPSQTLSLTCTVSGDSVRSAYSSWNWIRQPPGKGLEWIGQIHPNGNTYYNPSLMSRITVSIDTSKNQFSLKLDSVTAADTAVYFCATEGVTSESGSFDIWGQGRMVIVSSASTKGPSVAS
notes: Monomeric soluble scFv produced from the phagemid pUCH1 Amber; also called scFv-MICA
Ka: 7.4e+06 M⁻¹
Kd: 135 nM
